Data on one substance can be found in publication PMC6234505.

This experiment deals with GST-SHP2 PTP DAQA (substrate trapping mutant D425A/Q506A). In words: pull-down.

For the substance “YFP-GluN2B, tyrosine phosphorylated, in cell lysate (from UniProt Q00960 27-1482) (receptor)”, the fold more pulled down than by GST-SHP2 WT stood at 14 fold.
